Key:
[1] = target: human LAG-3 protein (Lymphocyte activation gene-3) on the cell surface (human) (UniProt P18627); test: flow cytometry on CD8+ cells of SEB-stimulated PBMCs (Donor 1); antibody 2326 ng/ml
[2] = target: human LAG-3 protein (Lymphocyte activation gene-3) on the cell surface (human) (UniProt P18627); test: flow cytometry on CD8+ cells of SEB-stimulated PBMCs (Donor 1); antibody 0 ng/ml (no-antibody background)
[3] = target: human LAG-3 protein (Lymphocyte activation gene-3) on the cell surface (human) (UniProt P18627); test: flow cytometry on LAG-3-transfected CHO cells; antibody 6 ng/ml
[4] = target: human LAG-3 protein (Lymphocyte activation gene-3) on the cell surface (human) (UniProt P18627); test: flow cytometry on CD8+ cells of SEB-stimulated PBMCs, mean of three donors
[5] = target: human LAG-3 protein (Lymphocyte activation gene-3) on the cell surface (human) (UniProt P18627); test: flow cytometry on LAG-3-expressing CHO cells, from Table 12
[6] = target: human LAG-3 protein (Lymphocyte activation gene-3) on the cell surface (human) (UniProt P18627); test: flow cytometry on CD8+ cells of SEB-stimulated PBMCs (Donor 1), from Table 13
[7] = target: IMP321 (recombinant soluble human LAG-3Ig fusion protein) (human) (UniProt P18627); test: Biacore, LAG-3Ig on the chip and 17B4 antibody in the running buffer
Sequence of IMP321 (recombinant soluble human LAG-3Ig fusion protein) (human) (P18627 23-450): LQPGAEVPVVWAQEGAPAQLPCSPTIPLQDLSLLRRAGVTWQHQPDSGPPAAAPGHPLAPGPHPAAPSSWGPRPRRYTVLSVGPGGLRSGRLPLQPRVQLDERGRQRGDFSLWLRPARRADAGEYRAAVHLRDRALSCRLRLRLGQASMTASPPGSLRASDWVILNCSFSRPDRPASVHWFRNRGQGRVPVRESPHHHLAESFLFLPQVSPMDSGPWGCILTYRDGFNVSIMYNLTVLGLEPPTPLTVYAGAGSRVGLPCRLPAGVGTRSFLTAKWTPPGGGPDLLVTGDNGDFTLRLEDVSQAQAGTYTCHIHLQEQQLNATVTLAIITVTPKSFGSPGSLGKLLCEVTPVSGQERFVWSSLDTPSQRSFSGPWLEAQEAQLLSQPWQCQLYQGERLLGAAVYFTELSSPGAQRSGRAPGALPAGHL

[8] = target: human LAG-3 protein (Lymphocyte activation gene-3) on the cell surface (human) (UniProt P18627); test: flow cytometry on LAG-3-transfected CHO cells; antibody 20 ng/ml
[9] = target: human LAG-3 protein (Lymphocyte activation gene-3) on the cell surface (human) (UniProt P18627); test: flow cytometry on CD4+ cells of SEB-stimulated PBMCs (Donor 1); antibody 541 ng/ml
[10] = target: human LAG-3 protein (Lymphocyte activation gene-3) on the cell surface (human) (UniProt P18627); test: flow cytometry on LAG-3-transfected CHO cells; antibody 10000 ng/ml
[11] = target: IMP321 (recombinant soluble human LAG-3Ig fusion protein) (human) (UniProt P18627); test: FACS, LAG-3Ig-Alexa 488 (1 µg/ml) pre-incubated with antibody 3300 ng/ml, then bound to Raji (MHC class II+) cells
[12] = target: IMP321 (recombinant soluble human LAG-3Ig fusion protein) (human) (UniProt P18627); test: FACS, LAG-3Ig-Alexa 488 (1 µg/ml) pre-incubated with antibody 89 ng/ml, then bound to Raji (MHC class II+) cells
[13] = target: human LAG-3 protein (Lymphocyte activation gene-3) on the cell surface (human) (UniProt P18627); test: flow cytometry on CD8+ cells of SEB-stimulated PBMCs (Donor 1); antibody 541 ng/ml
[14] = target: IMP321 (recombinant soluble human LAG-3Ig fusion protein) (human) (UniProt P18627); test: FACS, LAG-3Ig-Alexa 488 (1 µg/ml) pre-incubated with antibody 990 ng/ml, then bound to Raji (MHC class II+) cells
[15] = target: human LAG-3 protein (Lymphocyte activation gene-3) on the cell surface (human) (UniProt P18627); test: flow cytometry on CD8+ cells of SEB-stimulated PBMCs (Donor 1); antibody 7 ng/ml
[16] = target: human LAG-3 protein (Lymphocyte activation gene-3) on the cell surface (human) (UniProt P18627); test: flow cytometry on CD4+ cells of SEB-stimulated PBMCs, mean of three donors

Sequence of human LAG-3 protein (Lymphocyte activation gene-3) on the cell surface (human) (P18627 other isoform, or with tags, fused parts or gaps): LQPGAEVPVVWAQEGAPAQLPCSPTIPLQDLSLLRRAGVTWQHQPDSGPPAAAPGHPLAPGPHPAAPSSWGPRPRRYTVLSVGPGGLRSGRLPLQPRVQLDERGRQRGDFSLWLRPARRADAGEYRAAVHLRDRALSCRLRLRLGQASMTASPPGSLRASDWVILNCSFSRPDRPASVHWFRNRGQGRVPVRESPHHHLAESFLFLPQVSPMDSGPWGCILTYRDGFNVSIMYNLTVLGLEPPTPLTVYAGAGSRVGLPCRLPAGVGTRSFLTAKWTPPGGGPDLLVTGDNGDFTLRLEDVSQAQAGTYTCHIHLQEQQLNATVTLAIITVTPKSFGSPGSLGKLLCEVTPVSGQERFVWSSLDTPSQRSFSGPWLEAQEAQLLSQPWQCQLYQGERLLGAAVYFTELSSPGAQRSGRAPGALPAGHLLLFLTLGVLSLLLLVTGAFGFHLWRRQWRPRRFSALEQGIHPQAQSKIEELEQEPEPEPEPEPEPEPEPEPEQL

Substance: antagonistic anti-LAG-3 mouse monoclonal antibody 17B4
- MFI [1]: 4830 MFI
- MFI [2]: 112 MFI
- MFI [3]: 549 MFI
- EC50 [4]: 1 nM
- EC50 [5]: 0.7 nM
- EC50 [6]: 0.7 nM
- Kd [7]: 0.121 nM
- koff [7]: 0.000132 s⁻¹
- kon [7]: 1.09e+06 M⁻¹ s⁻¹
- MFI [8]: 1380 MFI
- MFI [9]: 1750 MFI
- MFI [10]: 6090 MFI
- MFI of sLAG-3Ig-Alexa 488 [11]: 13 MFI
- MFI of sLAG-3Ig-Alexa 488 [12]: 214 MFI
- MFI [13]: 4090 MFI
- MFI of sLAG-3Ig-Alexa 488 [14]: 35 MFI
- MFI [15]: 606 MFI
- EC50 [16]: 0.8 nM

— patent US20190153112A1 (IMMUTEP S A S, published 2019)
